In patent US20200181223A1:

Legend:
[1] = biological target: human insulin receptor isoform B (IR-B) (human) (UniProt P06213); test: SPA competition with [125I]-labelled human insulin, plasma membranes of CHO cells overexpressing the IR
[2] = biological target: human insulin receptor isoform B (IR-B) (human) (UniProt P06213)
[3] = biological target: human insulin receptor isoform B (IR-B) (human) (UniProt P06213); test: SPA competition with [125I]-labelled human insulin, plasma membranes of CHO cells overexpressing the IR; category B (<20%) as defined in paragraph 522
[4] = biological target: human insulin receptor isoform B (IR-B) (human) (UniProt P06213); test: SPA competition with [125I]-labelled human insulin, plasma membranes of CHO cells overexpressing the IR; 0 means below the detection limit
[5] = biological target: Glu(A14)Val(B25)Des(B30)-Insulin (human)
[6] = biological target: Glu(A14)Ile(B25)Des(B30)-Insulin (human)
[7] = biological target: Glu(A14)Val(B16)Des(B30)-Insulin (human)
[8] = biological target: Glu(A14)Des(B30)-Insulin (human)
[9] = biological target: Val(B25)Des(B30)-Insulin (human)
[10] = biological target: Glu(A14)Val(B16)Val(B25)Des(B30)-Insulin (human)
[11] = biological target: Human Insulin (wild-type) (human)
[12] = biological target: Leu(B25)Des(B30)-Insulin (human)
Leu(B25)Des(B30)-Insulin (human), sequence (chain, as listed by the source, chain 1 of 2): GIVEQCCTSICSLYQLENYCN
Leu(B25)Des(B30)-Insulin (human), sequence (chain, as listed by the source, chain 2 of 2): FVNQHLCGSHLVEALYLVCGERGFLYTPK

[13] = biological target: Glu(A14)Gly(A21)Trp(B25)Des(B30)-Insulin (human)
Glu(A14)Gly(A21)Trp(B25)Des(B30)-Insulin (human), sequence (chain, as listed by the source, chain 1 of 2): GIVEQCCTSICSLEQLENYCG
Glu(A14)Gly(A21)Trp(B25)Des(B30)-Insulin (human), sequence (chain, as listed by the source, chain 2 of 2): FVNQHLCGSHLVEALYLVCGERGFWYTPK

[14] = biological target: Glu(A14)His(B16)Des(B30)-Insulin (human)
Glu(A14)His(B16)Des(B30)-Insulin (human), sequence (chain, as listed by the source, chain 1 of 2): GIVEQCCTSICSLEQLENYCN
Glu(A14)His(B16)Des(B30)-Insulin (human), sequence (chain, as listed by the source, chain 2 of 2): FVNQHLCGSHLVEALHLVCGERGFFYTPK

[15] = biological target: Gly(A21)Trp(B16)His(B25)Des(B30)-Insulin (human)
Gly(A21)Trp(B16)His(B25)Des(B30)-Insulin (human), sequence (chain, as listed by the source, chain 1 of 2): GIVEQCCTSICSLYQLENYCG
Gly(A21)Trp(B16)His(B25)Des(B30)-Insulin (human), sequence (chain, as listed by the source, chain 2 of 2): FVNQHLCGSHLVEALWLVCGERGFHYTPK

purified pepsin (from porcine stomach mucosa) in simulated gastric fluid, sequence (P00791 60-385): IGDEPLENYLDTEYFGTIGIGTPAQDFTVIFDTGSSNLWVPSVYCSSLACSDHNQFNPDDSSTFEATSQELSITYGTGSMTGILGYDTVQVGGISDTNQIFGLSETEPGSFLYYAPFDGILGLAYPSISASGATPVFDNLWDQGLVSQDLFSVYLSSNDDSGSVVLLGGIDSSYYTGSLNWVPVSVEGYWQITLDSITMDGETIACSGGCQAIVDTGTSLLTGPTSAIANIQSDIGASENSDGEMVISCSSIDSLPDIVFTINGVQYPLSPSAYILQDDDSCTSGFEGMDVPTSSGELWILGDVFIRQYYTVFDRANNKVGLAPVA
Glu(A14)Glu(B16)His(B25)Des(B30)-Insulin (ligand), sequence (chain): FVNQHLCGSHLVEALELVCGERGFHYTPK
Glu(A14)Leu(B16)Ala(B25)Des(B30)-Insulin (ligand), sequence (chain): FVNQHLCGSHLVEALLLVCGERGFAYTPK
Glu(A14)Val(B16)Val(B25)Des(B30)-Insulin (ligand), sequence (chain): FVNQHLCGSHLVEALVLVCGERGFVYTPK
Glu(A14)His(B16)His(B25)Des(B30)-Insulin (ligand), sequence (chain): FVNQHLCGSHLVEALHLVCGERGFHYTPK
Glu(A14)Ile(B16)Val(B25)Des(B30)-Insulin (ligand), sequence (chain): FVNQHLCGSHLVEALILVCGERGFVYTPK
Glu(A14)Glu(B3)Val(B16)Des(B30)-Insulin (ligand), sequence (chain): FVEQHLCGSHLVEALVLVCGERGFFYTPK
Glu(A14)Glu(B3)Ile(B16)Ile(B25)Des(B30)-Insulin (ligand), sequence (chain): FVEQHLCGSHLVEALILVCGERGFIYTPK
Glu(A14)Ile(B16)Des(B30)-Insulin (ligand), sequence (chain): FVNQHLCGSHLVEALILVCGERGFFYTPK
Glu(A14)Glu(B3)Val(B16)Val(B25)Des(B30)-Insulin (ligand), sequence (chain): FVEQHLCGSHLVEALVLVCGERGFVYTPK
Glu(A14)Val(B16)Ile(B25)Des(B30)-Insulin (ligand), sequence (chain): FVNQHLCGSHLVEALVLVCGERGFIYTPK
Gly(A21)Trp(B16)Trp(B25)Des(B30)-Insulin (ligand), sequence (chain): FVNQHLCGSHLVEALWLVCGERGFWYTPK
Gly(A21)Trp(B16)Des(B30)-Insulin (ligand), sequence (chain): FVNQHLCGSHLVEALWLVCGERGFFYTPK
Glu(A14)Gly(A21)Glu(B3)Val(B25)Des(B30)-Insulin (ligand), sequence (chain): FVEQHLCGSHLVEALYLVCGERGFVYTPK
Glu(A14)Gly(A21)Val(B16)Trp(B25)Des(B30)-Insulin (ligand), sequence (chain): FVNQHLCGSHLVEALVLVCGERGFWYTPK
Glu(A14)Gly(A21)Glu(B3)Ile(B16)Val(B25)Des(B30)-Insulin (ligand), sequence (chain): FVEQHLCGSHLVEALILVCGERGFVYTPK
Glu(A14)Gly(A21)Glu(B3)Ile(B16)Trp(B25)Des(B30)-Insulin (ligand), sequence (chain): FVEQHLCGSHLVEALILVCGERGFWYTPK
Glu(A14)Gly(A21)Glu(B3)Val(B16)Trp(B25)Des(B30)-Insulin (ligand), sequence (chain): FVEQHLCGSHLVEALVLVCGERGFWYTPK
Ala(B25)Des(B30)-Insulin (ligand), sequence (chain): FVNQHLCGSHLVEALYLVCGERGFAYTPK
Val(B16)Des(B30)-Insulin (ligand), sequence (chain): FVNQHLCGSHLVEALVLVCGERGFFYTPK
Glu(A14)His(B16)Ala(B25)Des(B30)-Insulin (ligand), sequence (chain): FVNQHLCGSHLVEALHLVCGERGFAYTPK

Substance: Gly(A21)Trp(B16)Des(B30)-Insulin (ligand)
- Insulin-receptor binding affinity relative to human insulin (relative to human insulin) [1]: 0.57
- autophosphorylation activity relative to human insulin (relative to human insulin) [2]: 0.4

Substance: Glu(A14)His(B16)His(B25)[16-[4-[[5-[2-[2-[2-[2-[2-(carboxymethyloxy)ethoxy]ethylamino]-2-oxoethoxy]ethoxy]-ethylcarbamoyl]pyrimidin-2-yl]sulfamoyl]phenoxy]hexadecanoic acid]Lys(B29)Des(B30)-insulin (ligand)
- Insulin receptor B binding affinity relative to human insulin [3]: < 20%

Substance: Insulin analog 41 (Glu(A14)His(B16)His(B25)Des(B30)-insulin) (ligand)
- Insulin receptor B binding affinity relative to human insulin [3]: < 20%

Substance: Glu(A14)His(B16)Ala(B25)Des(B30)-Insulin (ligand)
- autophosphorylation activity relative to human insulin (relative to human insulin) [2]: 0.11

Substance: Glu(A14)Leu(B16)Ala(B25)Des(B30)-Insulin (ligand)
- Insulin-receptor binding affinity relative to human insulin (relative to human insulin) [1]: 0.01
- autophosphorylation activity relative to human insulin (relative to human insulin) [2]: 0.04

Substance: Glu(A14)Val(B16)Ile(B25)Des(B30)-Insulin (ligand)
- autophosphorylation activity relative to human insulin (relative to human insulin) [2]: 0.01
- Insulin-receptor binding affinity relative to human insulin (relative to human insulin) [4]: 0

Substance: Glu(A14)His(B16)His(B25)Des(B30)-Insulin (ligand)
- Insulin-receptor binding affinity relative to human insulin (relative to human insulin) [1]: 0.12
- autophosphorylation activity relative to human insulin (relative to human insulin) [2]: 0.11

Substance: Glu(A14)Ile(B16)Val(B25)Des(B30)-Insulin (ligand)
- autophosphorylation activity relative to human insulin (relative to human insulin) [2]: 0.04
- Insulin-receptor binding affinity relative to human insulin (relative to human insulin) [4]: 0

Substance: Gly(A21)Trp(B16)His(B25)Des(B30)-Insulin (ligand)
- Insulin-receptor binding affinity relative to human insulin (relative to human insulin) [1]: 0.4
- autophosphorylation activity relative to human insulin (relative to human insulin) [2]: 0.35

Substance: purified pepsin (from porcine stomach mucosa) in simulated gastric fluid (from UniProt P00791) (enzyme)
- percent remaining insulin analog after 30 minutes in gastric fluid (Ala(B25)-Insulin (human)): 30%
- percent remaining insulin analog after 30 minutes in gastric fluid [5]: 52%
- percent remaining insulin analog after 30 minutes in gastric fluid [6]: 52%
- percent remaining insulin analog after 30 minutes in gastric fluid [7]: 0%
- percent remaining insulin analog after 30 minutes in gastric fluid [8]: 0%
- percent remaining insulin analog after 30 minutes in gastric fluid [9]: 44%
- percent remaining insulin analog after 30 minutes in gastric fluid [10]: 36%
- percent remaining insulin after 30 minutes in gastric fluid [11]: 0%

Substance: Glu(A14)Gly(A21)Glu(B3)Val(B16)Trp(B25)Des(B30)-Insulin (ligand)
- Insulin-receptor binding affinity relative to human insulin (relative to human insulin) [1]: 0.21
- autophosphorylation activity relative to human insulin (relative to human insulin) [2]: 0.19

Substance: Glu(A14)Glu(B3)Val(B16)Val(B25)Des(B30)-Insulin (ligand)
- autophosphorylation activity relative to human insulin (relative to human insulin) [2]: 0.02
- Insulin-receptor binding affinity relative to human insulin (relative to human insulin) [4]: 0

Substance: insulin degrading enzyme (IDE)
- percent remaining insulin analog after 30 minutes with insulin degrading enzyme, IDE (Ala(B25)-Insulin (human)): 2%
- percent remaining insulin analog after 30 minutes with insulin degrading enzyme, IDE [5]: 86%
- percent remaining insulin analog after 30 minutes with insulin degrading enzyme, IDE [12]: 12%
- percent remaining insulin analog after 30 minutes with insulin degrading enzyme, IDE [6]: 77%
- percent remaining insulin analog after 30 minutes with insulin degrading enzyme, IDE [13]: 80%
- percent remaining insulin analog after 30 minutes with insulin degrading enzyme, IDE [7]: 98%
- percent remaining insulin analog after 30 minutes with insulin degrading enzyme, IDE [8]: 81%
- percent remaining insulin analog after 30 minutes with insulin degrading enzyme, IDE [14]: 88%
- percent remaining insulin analog after 30 minutes with insulin degrading enzyme, IDE [9]: 11%
- percent remaining insulin analog after 30 minutes with insulin degrading enzyme, IDE [15]: 41%
- percent remaining insulin analog after 30 minutes with insulin degrading enzyme, IDE [10]: 86%
- percent remaining insulin after 30 minutes with insulin degrading enzyme, IDE [11]: 38%

Substance: Glu(A14)Gly(A21)Val(B16)Trp(B25)Des(B30)-Insulin (ligand)
- Insulin-receptor binding affinity relative to human insulin (relative to human insulin) [1]: 0.17
- autophosphorylation activity relative to human insulin (relative to human insulin) [2]: 0.23

Substance: Gly(A21)Trp(B16)Trp(B25)Des(B30)-Insulin (ligand)
- Insulin-receptor binding affinity relative to human insulin (relative to human insulin) [1]: 0.43
- autophosphorylation activity relative to human insulin (relative to human insulin) [2]: 0.38

Substance: Glu(A14)Ile(B16)Des(B30)-Insulin (ligand)
- Insulin-receptor binding affinity relative to human insulin (relative to human insulin) [1]: 0.23
- autophosphorylation activity relative to human insulin (relative to human insulin) [2]: 0.18

Substance: Glu(A14)Val(B16)Des(B30)-Insulin (ligand)
- autophosphorylation activity relative to human insulin (relative to human insulin) [2]: 0.32

Substance: Glu(A14)Val(B16)Val(B25)Des(B30)-Insulin (ligand)
- autophosphorylation activity relative to human insulin (relative to human insulin) [2]: 0.03
- Insulin-receptor binding affinity relative to human insulin (relative to human insulin) [4]: 0

Substance: Cathepsin D (enzyme)
- percent remaining insulin analog after 30 minutes with Cathepsin D (Ala(B25)-Insulin (human)): 52%
- percent remaining insulin analog after 30 minutes with Cathepsin D [5]: 59%
- percent remaining insulin analog after 30 minutes with Cathepsin D [6]: 20%
- percent remaining insulin analog after 30 minutes with Cathepsin D [7]: 0%
- percent remaining insulin analog after 30 minutes with Cathepsin D [8]: 0%
- percent remaining insulin analog after 30 minutes with Cathepsin D [9]: 43%
- percent remaining insulin analog after 30 minutes with Cathepsin D [10]: 62%
- percent remaining insulin after 30 minutes with Cathepsin D [11]: 0%

Substance: Glu(A14)Gly(A21)Glu(B3)Ile(B16)Val(B25)Des(B30)-Insulin (ligand)
- Insulin-receptor binding affinity relative to human insulin (relative to human insulin) [1]: 0.01
- autophosphorylation activity relative to human insulin (relative to human insulin) [2]: 0.02

Substance: Glu(A14)Gly(A21)Glu(B3)Ile(B16)Trp(B25)Des(B30)-Insulin (ligand)
- Insulin-receptor binding affinity relative to human insulin (relative to human insulin) [1]: 0.12
- autophosphorylation activity relative to human insulin (relative to human insulin) [2]: 0.13

Substance: α-Chymotrypsin (enzyme)
- percent remaining insulin analog after 120 minutes with α-Chymotrypsin (Ala(B25)-Insulin (human)): 58%
- percent remaining insulin analog after 120 minutes with α-Chymotrypsin [5]: 40%
- percent remaining insulin analog after 120 minutes with α-Chymotrypsin [6]: 99%
- percent remaining insulin analog after 120 minutes with α-Chymotrypsin [7]: 30%
- percent remaining insulin analog after 120 minutes with α-Chymotrypsin [8]: 35%
- percent remaining insulin analog after 120 minutes with α-Chymotrypsin [9]: 31%
- percent remaining insulin analog after 120 minutes with α-Chymotrypsin [10]: 34%
- percent remaining insulin after 120 minutes with α-Chymotrypsin [11]: 5%

Substance: Ala(B25)Des(B30)-Insulin (ligand)
- autophosphorylation activity relative to human insulin (relative to human insulin) [2]: 0.17

Substance: Glu(A14)Gly(A21)Trp(B16)Des(B30)-Insulin (ligand)
- Insulin-receptor binding affinity relative to human insulin (relative to human insulin) [1]: 0.63
- autophosphorylation activity relative to human insulin (relative to human insulin) [2]: 0.38

Substance: Glu(A14)Gly(A21)Glu(B3)Val(B16)Val(B25)Des(B30)-Insulin (ligand)
- Insulin-receptor binding affinity relative to human insulin (relative to human insulin) [1]: 0.01
- autophosphorylation activity relative to human insulin (relative to human insulin) [2]: 0.01

Substance: Glu(A14)Glu(B3)Ile(B16)Ile(B25)Des(B30)-Insulin (ligand)
- autophosphorylation activity relative to human insulin (relative to human insulin) [2]: 0.01
- Insulin-receptor binding affinity relative to human insulin (relative to human insulin) [4]: 0

Substance: Val(B16)Des(B30)-Insulin (ligand)
- autophosphorylation activity relative to human insulin (relative to human insulin) [2]: 0.32

Substance: Glu(A14)His(B16)Des(B30)-Insulin (ligand)
- Insulin-receptor binding affinity relative to human insulin (relative to human insulin) [1]: 0.36
- autophosphorylation activity relative to human insulin (relative to human insulin) [2]: 0.29

Substance: Glu(A14)Gly(A21)Glu(B3)Val(B25)Des(B30)-Insulin (ligand)
- Insulin-receptor binding affinity relative to human insulin (relative to human insulin) [1]: 0.02
- autophosphorylation activity relative to human insulin (relative to human insulin) [2]: 0.03

Substance: Glu(A14)Glu(B3)Val(B16)Des(B30)-Insulin (ligand)
- Insulin-receptor binding affinity relative to human insulin (relative to human insulin) [1]: 0.4
- autophosphorylation activity relative to human insulin (relative to human insulin) [2]: 0.28

Substance: Glu(A14)Glu(B16)His(B25)Des(B30)-Insulin (ligand)
- Insulin-receptor binding affinity relative to human insulin (relative to human insulin) [1]: 0.01
- autophosphorylation activity relative to human insulin (relative to human insulin) [2]: 0.07
